In article PMC5416842, “The ribosome biogenesis factor yUtp23/hUTP23 coordinates key interactions in the yeast and human pre-40S particle and hUTP23 contains an essential PIN domain” (Nucleic Acids Research, 2017):

B4: GST-tagged human hUTP23 (natural protein, UniProt Q9BRU9 1-249, looked up)
chain: MKITRQKHAKKHLGFFRNNFGVREPYQILLDGTFCQAALRGRIQLREQLPRYLMGETQLCTTRCVLKELETLGKDLYGAKLIAQKCQVRNCPHFKNAVSGSECLLSMVEEGNPHHYFVATQDQNLSVKVKKKPGVPLMFIIQNTMVLDKPSPKTIAFVKAVESGQLVSVHEKESIKHLKEEQGLVKNTEQSRRKKRKKISGPNPLSCLKKKKKAPDTQSSASEKKRKRKRIRNRSNPKVLSEKQNAEGE
notes: hUTP23, human; open reading frame amplified from human cDNA; also called GST-hUTP23
B5: protein-A-His-tagged yUtp23 (natural protein, S. cerevisiae, UniProt Q12339 1-254, looked up)
chain: MRQKRAKSYRKQLLVYSHTFKFREPYQVLVDNQLVLECNNSNFNLPSGLKRTLQADVKVMITQCCIQALYETRNDGAINLAKQFERRRCNHSFKDPKSPAECIESVVNISGANKHRYVVASQDIDLRRKLRTVPGVPLIHLTRSVMVMEPLSTASAKASKITEEQKLYKGLNDPNIEKLQESGDGSGKESITKKRKLGPKAPNPLSVKKKKKVNSPSDEVKDKEDTSKEKKKRRRRKHKSNTNVPVSNGTTAAQ
notes: yUtp23, S. cerevisiae; open reading frame amplified from yeast genomic DNA

Tests used:
[1] = target: T1, GST-yUtp23 WT (Saccharomyces cerevisiae) (UniProt Q12339); assay: EMSA; details: EMSA: 10 mM Tris/HCl pH 7.6, 75 mM NaCl, 2 mM DTT, 100 ng/ul BSA, 0.8 U/ul RNasin, 4.5% glycerol, 0.05% Tween20, 500 ng/ul E. coli tRNA; 10 min 30 C then 10 min
T1 sequence: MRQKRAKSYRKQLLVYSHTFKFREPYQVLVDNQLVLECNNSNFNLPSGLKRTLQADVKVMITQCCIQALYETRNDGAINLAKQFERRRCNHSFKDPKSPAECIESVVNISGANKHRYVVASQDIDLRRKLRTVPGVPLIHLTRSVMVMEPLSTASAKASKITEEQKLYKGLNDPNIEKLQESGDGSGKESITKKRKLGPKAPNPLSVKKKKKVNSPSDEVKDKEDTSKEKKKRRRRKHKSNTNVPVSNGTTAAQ

[2] = system: GST-yUtp23 WT (Saccharomyces cerevisiae); assay: EMSA; details: 100-1000 nM protein; EMSA: 10 mM Tris/HCl pH 7.6, 75 mM NaCl, 2 mM DTT, 100 ng/ul BSA, 0.8 U/ul RNasin, 4.5% glycerol, 0.05% Tween20, 500 ng/ul E. coli tRNA; 10 min 30 C then 10 min
[3] = target: T1, GST-yUtp23 WT (Saccharomyces cerevisiae); assay: competition; details: EMSA: 10 mM Tris/HCl pH 7.6, 75 mM NaCl, 2 mM DTT, 100 ng/ul BSA, 0.8 U/ul RNasin, 4.5% glycerol, 0.05% Tween20, 500 ng/ul E. coli tRNA; 10 min 30 C then 10 min
GST-tagged human hUTP23 = target: B4; assay: pull-down; GST-tagged hUTP23 immobilised on glutathione sepharose (pre-blocked with BSA), incubated with N-terminally His-tagged recombinant human proteins for 1 h at 4°C in Buffer NB (20 mM Tris/HCl pH 7.6, 150 mM NaCl, 8.7% glycerol, 0.1% Tween20); five washes; SDS-PAGE, immunoblotting with anti-His and anti-GST antibodies; details: both partners purified
[4] = target: B5; assay: pull-down; GST-tagged yeast bait proteins immobilised on glutathione sepharose (pre-blocked with BSA), incubated with recombinant protein-A-His-tagged yUtp23 for 1 h at 4°C in Buffer NB (20 mM Tris/HCl pH 7.6, 150 mM NaCl, 8.7% glycerol, 0.1% Tween20); five washes; SDS-PAGE, Coomassie staining; details: both partners purified
[5] = target: T2, N-terminally His-tagged hRRP7 (human, UniProt Q9Y3A4 1-280); assay: pull-down; GST-tagged hUTP23 immobilised on glutathione sepharose (pre-blocked with BSA), incubated with N-terminally His-tagged recombinant human proteins for 1 h at 4°C in Buffer NB (20 mM Tris/HCl pH 7.6, 150 mM NaCl, 8.7% glycerol, 0.1% Tween20); five washes; SDS-PAGE, immunoblotting with anti-His and anti-GST antibodies; details: both partners purified
T2 construct: hRRP7, human; open reading frame amplified from human cDNA; The legend says that C-terminally truncated forms of the His-tagged hRRP7 protein were also present in the preparation; not shown: His tag, N-terminal, kept
T2 sequence (looked up): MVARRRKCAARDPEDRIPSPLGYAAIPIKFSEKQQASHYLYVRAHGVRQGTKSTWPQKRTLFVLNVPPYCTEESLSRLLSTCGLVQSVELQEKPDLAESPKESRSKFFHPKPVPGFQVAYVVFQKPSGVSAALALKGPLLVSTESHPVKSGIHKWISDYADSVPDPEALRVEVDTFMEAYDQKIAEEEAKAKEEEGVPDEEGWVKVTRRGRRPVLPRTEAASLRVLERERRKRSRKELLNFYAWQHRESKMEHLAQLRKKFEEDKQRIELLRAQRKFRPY

GST-tagged yeast yUtp23 = target: T3, GST-tagged yeast yUtp23 (S. cerevisiae, UniProt Q12339 1-254); assay: pull-down; GST-tagged yeast bait proteins immobilised on glutathione sepharose (pre-blocked with BSA), incubated with recombinant protein-A-His-tagged yUtp23 for 1 h at 4°C in Buffer NB (20 mM Tris/HCl pH 7.6, 150 mM NaCl, 8.7% glycerol, 0.1% Tween20); five washes; SDS-PAGE, Coomassie staining; details: both partners purified
T3 construct: yUtp23, S. cerevisiae; open reading frame amplified from yeast genomic DNA; also called GST-yUtp23
T3 sequence (looked up): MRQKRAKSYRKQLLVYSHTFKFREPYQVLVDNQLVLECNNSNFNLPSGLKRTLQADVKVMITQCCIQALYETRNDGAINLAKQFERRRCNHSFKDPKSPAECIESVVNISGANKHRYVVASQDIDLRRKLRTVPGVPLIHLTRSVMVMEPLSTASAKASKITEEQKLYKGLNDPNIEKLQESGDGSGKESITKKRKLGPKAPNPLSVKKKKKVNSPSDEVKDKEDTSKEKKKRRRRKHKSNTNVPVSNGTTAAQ

GST-tagged yeast yRrp7 = target: T4, GST-tagged yeast yRrp7 (S. cerevisiae, UniProt P25368 1-297); assay: as above; details: both partners purified
T4 construct: yRrp7, S. cerevisiae; open reading frame amplified from yeast genomic DNA; also called GST-yRrp7
T4 sequence (looked up): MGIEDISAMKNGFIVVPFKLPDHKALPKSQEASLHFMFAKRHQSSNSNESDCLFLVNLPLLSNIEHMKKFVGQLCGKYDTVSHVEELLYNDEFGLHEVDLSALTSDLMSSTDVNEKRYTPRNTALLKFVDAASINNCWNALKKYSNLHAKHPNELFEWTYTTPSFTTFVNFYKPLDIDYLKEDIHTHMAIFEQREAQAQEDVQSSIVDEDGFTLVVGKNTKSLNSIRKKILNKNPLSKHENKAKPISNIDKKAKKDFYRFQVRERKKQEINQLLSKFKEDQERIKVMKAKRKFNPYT

GGGUAGGACGCAUGAUCUUGAGCUCUUUUCCUAUACUUUGUCCUAUGGCCAGCUUUCUCCUUAUUACGAAGAGAUUGCGGGAUGUGGGUGCAGAGUGGGAAAAUCUGAGUUCGGUCAUCUUUGUUGUUCGUCCUAC [snR30 IH (nt 398-531)]
binding [1]: no binding

snR30 full length (nt 1-606)
Kd [2]: 300 nM

GGCGUAUUGCUCGAAUAUAUUAGCAUGGAAUAAUAGAAUAGGACGUUUGGUUCUAUUUUGUUGGUUUCUAGGACCAUCGUAAUGAUUAAUAGGGACGGUCGGGGGCAUCAGUAUUCAAUUGUCAGAGGUGAAAUUCUUGGAUUUAUUGAAGACUAACUACUGCGAAAGCAUUUGCCAAGGACGUUUUCA [18S rRNA ES6 fragment (nt 775-963, RNA A)]
binding [3]: binds

GGCCGCAGUAUAUUCCUAAACACUAUGAAAUGACCCUAGUUGGUCCAUGAUCAUUUGGGUAAAACCAUACUGCAGACAUCU [snR30 3' HP (nt 531-606)]
binding [1]: no binding

GGGUAGGACGCAUGAUCUUGAGCUCUUUUCCUAUACUUUGUCCUAUGGCCAGCUUUCUCCUUAUUACGAAGAGAUUGCGGGAUGUGGGUGCAGAGUGGGAAAAUCUGAGUUCGGUCAUCUUUGUUGUUCGUCCUACCGCAGUAUAUUCCUAAACACUAUGAAAUGACCCUAGUUGGUCCAUGAUCAUUUGGGUAAAACCAUACUGCAGACAUCU [snR30 IH + 3' HP (nt 398-606)]
binding [1]: binds more weakly

B1: N-terminally His-tagged hUTP24 (natural protein, human, UniProt Q9Y324 1-198, looked up)
chain: MGKQKKTRKYATMKRMLSLRDQRLKEKDRLKPKKKEKKDPSALKEREVPQHPSCLFFQYNTQLGPPYHILVDTNFINFSIKAKLDLVQSMMDCLYAKCIPCITDCVMAEIEKLGQKYRVALRIAKDPRFERLPCTHKGTYADDCLVQRVTQHKCYIVATVDRDLKRRIRKIPGVPIMYISNHRYNIERMPDDYGAPRF
notes: hUTP24 (human homologue of yUtp24/Fcf1); open reading frame amplified from human cDNA; not shown: His tag, N-terminal, kept
binding result (GST-tagged human hUTP23): binds

B2: GST-tagged yeast yUtp24 (natural protein, S. cerevisiae, UniProt Q05498 1-189, looked up)
chain: MGKAKKTRKFGLVKRTLNTKKDQRLKKNQENIKTKEDPELTRNIPQVSSALFFQYNQAIKPPYQVLIDTNFINFSIQKKVDIVRGMMDCLLAKCNPLITDCVMAELEKLGPKYRIALKLARDPRIKRLSCSHKGTYADDCLVHRVLQHKCYIVATNDAGLKQRIRKIPGIPLMSVGGHAYVIEKLPDVF
notes: yUtp24/Fcf1, S. cerevisiae; open reading frame amplified from yeast genomic DNA; also called Fcf1; yUtp24(Fcf1)
binding result [4]: binds

B3: N-terminally His-tagged hNHP2 (natural protein, human, UniProt Q9NX24 1-153, looked up)
chain: MTKIKADPDGPEAQAEACSGERTYQELLVNQNPIAQPLASRRLTRKLYKCIKKAVKQKQIRRGVKEVQKFVNKGEKGIMVLAGDTLPIEVYCHLPVMCEDRNLPYVYIPSKTDLGAAAGSKRPTCVIMVKPHEEYQEAYDECLEEVQSLPLPL
notes: core box H/ACA protein hNHP2, human; open reading frame amplified from human cDNA; not shown: His tag, N-terminal, kept
binding result (GST-tagged human hUTP23): binds

B4
binding result [5]: binds

B5
binding result (GST-tagged yeast yUtp23): binds
binding result (GST-tagged yeast yRrp7): binds
